Experimental findings from article PMC2757719 are described below.

What all share (assay): EMSA
Common to all, as to details: 20 mM Tris pH 7.5, 200 mM NaCl, 1 ug salmon sperm DNA, 10 fmol probe, 20 ul, room temperature 10 min; 10% polyacrylamide gel
(A gel shift assay detects complexes by their altered migration in electrophoresis.)

The target in data set [1] is T1, EBNA1 395-641 (Epstein-Barr virus) (UniProt P03211).
T1 sequence: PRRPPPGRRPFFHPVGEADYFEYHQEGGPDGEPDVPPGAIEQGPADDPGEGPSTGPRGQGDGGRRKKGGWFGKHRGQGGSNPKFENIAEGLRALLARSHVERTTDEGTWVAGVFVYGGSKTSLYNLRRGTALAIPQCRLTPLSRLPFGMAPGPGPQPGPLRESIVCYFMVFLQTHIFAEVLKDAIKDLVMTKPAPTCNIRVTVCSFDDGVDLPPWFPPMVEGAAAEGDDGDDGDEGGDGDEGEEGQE

Data set [2] concerns the target EBNA1 452-641;USP7 (Epstein-Barr virus;human?) (UniProt P03211+Q93009).
In data set [3] the target is EBNA1 395-641;USP7 (Epstein-Barr virus;human?) (UniProt P03211+Q93009).
Chain of EBNA1 395-641;USP7 (Epstein-Barr virus;human?) (Q93009 whole entry, one chain of several): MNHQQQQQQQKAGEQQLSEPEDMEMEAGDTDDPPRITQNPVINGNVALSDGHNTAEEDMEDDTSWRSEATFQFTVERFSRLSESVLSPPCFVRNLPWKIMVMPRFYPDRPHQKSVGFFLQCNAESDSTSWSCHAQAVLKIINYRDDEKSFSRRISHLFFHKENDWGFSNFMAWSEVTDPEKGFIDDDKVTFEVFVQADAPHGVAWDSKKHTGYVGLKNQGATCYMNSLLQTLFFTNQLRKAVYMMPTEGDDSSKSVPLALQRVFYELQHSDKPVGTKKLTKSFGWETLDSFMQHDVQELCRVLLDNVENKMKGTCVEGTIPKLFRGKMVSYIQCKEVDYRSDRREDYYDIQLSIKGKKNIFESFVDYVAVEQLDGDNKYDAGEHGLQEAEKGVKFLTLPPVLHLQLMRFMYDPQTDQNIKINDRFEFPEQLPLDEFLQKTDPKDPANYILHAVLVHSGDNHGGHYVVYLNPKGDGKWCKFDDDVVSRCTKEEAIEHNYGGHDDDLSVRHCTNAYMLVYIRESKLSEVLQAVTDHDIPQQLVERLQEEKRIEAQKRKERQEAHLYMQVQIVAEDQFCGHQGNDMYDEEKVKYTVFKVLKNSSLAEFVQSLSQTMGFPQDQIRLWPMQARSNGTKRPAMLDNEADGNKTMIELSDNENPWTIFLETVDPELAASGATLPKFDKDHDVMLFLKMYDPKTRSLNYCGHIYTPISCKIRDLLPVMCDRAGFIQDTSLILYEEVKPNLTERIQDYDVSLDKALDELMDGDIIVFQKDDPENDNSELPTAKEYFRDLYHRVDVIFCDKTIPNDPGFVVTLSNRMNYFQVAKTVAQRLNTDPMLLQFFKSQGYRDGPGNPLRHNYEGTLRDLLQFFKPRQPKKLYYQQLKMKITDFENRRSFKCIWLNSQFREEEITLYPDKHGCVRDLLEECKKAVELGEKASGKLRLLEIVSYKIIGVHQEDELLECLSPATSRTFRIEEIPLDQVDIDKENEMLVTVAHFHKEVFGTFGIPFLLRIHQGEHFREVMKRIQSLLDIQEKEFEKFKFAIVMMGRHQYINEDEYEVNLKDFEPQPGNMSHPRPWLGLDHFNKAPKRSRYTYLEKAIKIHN

Chain of EBNA1 452-641;USP7 (Epstein-Barr virus;human?) (Q93009 whole entry, one chain of several): as above

Turning to “CGGGAAGCATATGCTACCCG (double strand) [DS site 1 20-mer]”, the Kd in data set [1] stood at 233 nM; in data set [3] it was 4 nM. The sequence further yielded a binding signal (fold increase vs P3 alone) in data set [2] of 4.

One may read the Kd as the free concentration of one partner at which half of the binding sites on the other are occupied at equilibrium, for simple one-to-one binding. The low end stands for higher affinity, the high end for lower affinity.
